Ends that are not written are not given here.
Tests used:
[1] = target: insulin-like growth factor 2 receptor (IGF2R) on rat hepatic stellate cells HSC-T6 (rat); test: flow cytometry, uptake of 5-FAM labelled peptide by HSC-T6 cells, 1 h
[2] = target: insulin-like growth factor 2 receptor (IGF2R) on rat hepatic stellate cells HSC-T6 (rat); test: flow cytometry, 5-FAM labelled peptide titrated on HSC-T6 cells, 1 h at 37 C; apparent Kd

cellular uptake [1]: 12%
Kd [2]: 12.3 µM
Binder: VHWDFRQWWQPS (also: 5-FAM label, position not given here) [Peptide-431]
